“Also recorded” adds a separate entry of the source.
Experiments:
Uch-L3 = biological target: T1, Uch-L3 (Homo sapiens, UniProt P15374); assay: Nedd8-AMC hydrolysis by Uch-L3; format: biochemical; conditions: 5 μM LDN, 20 nM Uch-L3, Nedd8-AMC 400 nM
T1 sequence (P15374 1-230): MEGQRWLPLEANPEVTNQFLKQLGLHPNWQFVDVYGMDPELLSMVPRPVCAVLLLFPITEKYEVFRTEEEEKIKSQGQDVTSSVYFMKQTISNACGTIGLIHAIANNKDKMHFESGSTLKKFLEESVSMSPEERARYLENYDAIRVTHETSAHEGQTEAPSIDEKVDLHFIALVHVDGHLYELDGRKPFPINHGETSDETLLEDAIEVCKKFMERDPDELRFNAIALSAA
Description: Measurement of Hydrolase Activity: The hydrolase assay was performed as previously described (Nishikawa et al., 2003) with slight modifications. Briefly, hippocampal tissue was treated with tissue protein extraction reagent (T-PER; Pierce) containing freshly added EDTA-free protease inhibitors. Homogenate was centrifuged at 10,000 rpm for 5 min. Protein concentration was measured in the supernatant using the BCA protein assay reagent. In some experiments hydrolysis was initiated by adding 10 μl of 20 nM Uch-L1 or Uch-L3 (Boston Biochem). The hydrolase assay was performed using fluorogenic ubiquitin-7-amino-4-methylcoumarin (ubiquitin-AMC) (Boston Biochem) as a substrate. The substrate was diluted in assay buffer (50 mM Tris-HCL, 0.5 mM EDTA, 5 mM dithiothreitol and 0.1 mg/ml ovalbumin, pH 7.6). […] The reaction was monitored using a fluorescence spectrophotometer (CytoFluor Series 4000, ABI Inc) at 25° C. The free AMC fluorophore was excited at 380 nm and measured at 460 nm. Hydrolase activity was expressed as relative fluorescence intensity/min (Dang et al., 1998). In some experiments, hydrolysis was also measured on the soluble and insoluble fractions (FIG. 28D). In a group of experiments hydrolysis was measured by mixing ubiquitin-AMC with 20 nM TAT fusion proteins (FIG. 27C). […]

[1] = Native gel dimer formation; format: physicochemical
PKA [2] = assay: PKA kinase activity in hippocampal cultures; format: cell-based, rat; conditions: fusion protein 100 nM 24 hrs; for basal PKA activity in Aβ-treated cultures: Aβ 24 hrs
Description: PKA Kinase Activity Measurement. Primary hippocampal neurons from E18 rats were dissociated and cultured as described (Vitolo et al, Proc Natl Acad Sci USA 99:13217-13221 (2002)). […]
Hippocampal slices were lysed with RIPA lysis buffer and homogenized by Dounce homogenizer on ice. 5 DIV primary cultures were treated for 24 hrs and cells were lysed with RIPA lysis buffer.
Levels of intracellular PKA kinase activity were measured by PKA Kinase Activity Assay Kit (Stressxpress) according to manufacturer's instructions.
Preparation of Cell Cultures. Hippocampal cell cultures were prepared as previously described (Vitolo et al., 2002). In cell culture experiments fetuses at embryonic day 18 from timed pregnant Sprague-Dawley rats (Taconic Farms) were used. Fetuses were sacrificed and the hippocampi removed. Neurons were then dissociated, plated on 6 well-plates coated with poly-L-lysine and maintained in a defined serum-free medium containing minimum essential medium supplemented with N-2, glucose, albumin, pyruvic acid, antibiotics and antimycotics. […] 5 DIV cells were used for the experiments.

Aβ42 = assay: Quantification of amyloid peptides by ELISA in APP/PS1 mice; format: in vivo, mouse; conditions: for cortex Aβ levels / hippocampal Aβ levels: 0.02-0.04 g/kg i.p.; for Aβ levels in APP/PS1 mice (words): single injection 0.02-0.04 g/kg i.p.
PKA [3] = assay: PKA kinase activity in hippocampal slices; format: cell-based, mouse
phospho-CREB = assay: Phospho-CREB immunofluorescence in hippocampal slices; format: cell-based, mouse
monoubiquitin = assay: Monoubiquitin levels (quantitative Western blot); format: cell-based, mouse
Description: Western Blotting: Protein levels were assessed using standard procedures. Protein extraction was performed using buffer with and without detergent. For the extraction of protein using detergent, hippocampal tissues and cultured hippocampal neurons (5 DIV) were homogenized in RIPA buffer (50 mM Tris-HCl pH 7.4, 1% Triton X-100, 1% sodium deoxycholate, 0.1% SDS, 150 mM sodium chloride, 10 mM sodium fluoride, 30 mM sodium pyrophosphate, 50 mM sodium orthovanadate) containing 1× complete protease inhibitor (Roche) and 1 mM phenylmethylsulfonyl fluoride (PMSF). For extraction of proteins without detergent, hippocampal extracts were homogenized with disposable dounce homogenizers in buffer A, containing 10 mM HEPES pH 7.3, 300 mM sucrose, protease 1× complete protease inhibitor (Roche) and PMSF. After centrifugation at 10,000×g supernatant proteins were resolved on a 8% or 4-20% gradient Tris-Glycine gel, transferred onto PVDF or nitrocellulose membrane and blocked in 5% skim milk in PBS-Tween 0.1% (PBS-T). Membranes were probed with primary antibodies, and after washing with PBS-T incubated with an appropriate HRP-conjugated secondary antibody. The following antibodies were used: mouse monoclonal anti-ubiquitin (Chemicon), rabbit polyclonal anti-pCREB (Upstate Biotech.), rabbit polyclonal anti-PKA-RIIα (Santa Cruz Biotech. Inc), mouse monoclonal anti-Uch-L1 (Novocastra), monoclonal mouse anti-HA (Santa Cruz Biotech. Inc), and anti-PKA IIα. Detection was performed using HRP-conjugated secondary antibodies (Pierce, Rockford, Ill.). To control loading and transfer, protein immunoreactivities were normalized against total extracellular signal-regulated protein kinases (ERK1/2) levels with a rabbit analyzed using a rabbit polyclonal anti-ERK1/2 antibody (Cell Signaling Technology, Inc). NIH IMAGE was used to analyze the scanned blots and quantify the intensity of the protein signals.

[4] = 3-5 month old APP/PS1 mice, sacrificed 3 weeks after injection
[5] = 4 month old APP/PS1 mice, sacrificed 4 hrs after injection
[6] = 4 hrs after injection, 4 month old APP/PS1 mice

Molecule: CC(=O)O/N=C1\C(=O)N(Cc2cc(Cl)ccc2Cl)c2ccc(Cl)cc21 [LDN-57444, reference compound]
- Uch-L3 hydrolase activity (Nedd8-AMC hydrolysis) (Uch-L3): does not affect Uch-L3 hydrolase activity
- Uch-L3 hydrolase activity (Nedd8-AMC hydrolysis) (Uch-L3; listed as LDN): no reduction in hydrolysis of Nedd8-AMC

B1: TAT-HA-Uch-L1: fusion protein: 11-amino acid transduction domain of HIV-transactivator protein (TAT) fused with an HA tag and human Uch-L1 (protein)
chain: MQLKPMEINPEMLNKVLSRLGVAGQWRFVDVLGLEEESLGSVPAPACALLLLFPLTAQHENFRKKQIEELKGQEVSPKVYFMKQTIGNSCGTIGLIHAVANNQDKLGFEDGSVLKQFLSETEKMSPEDRAKCFEKNEAIQAAHDAVAQEGQCRVDDKVNFHFILFNNVDGHLYELDGRMPFPVNHGASSEDTLLKDAAKVCREFTEREQGEVRFSAVALCKAA
modifications: left off: small tags and cut ends
- dimer formation ([1]; 1 μM): no dimer formation was detected; also recorded: No dimers were detected
- dimer formation ([1]; 5 μM): Dimers were seen at 5 μM; also recorded: A weak band corresponding to dimers and other oligomeric species was detected
- glutamate-induced increase in PKA activity in Aβ-treated cultures (PKA [2]; 3 μM Aβ 24 hrs, glutamate 50 μM 15 min): rescued the increase in PKA activity; also recorded: rescued the glutamate-induced increase in kinase activity
- basal PKA activity in Aβ-treated cultures (PKA [2]): reversing the Aβ-induced decrease in basal PKA activity; also recorded: re-established; also recorded: increased levels of kinase activity
- basal PKA activity in Aβ-treated cultures (PKA [2]; listed as TAT-Uch-L1 fusion protein): re-establishes normal levels
- cortex Aβ levels (Aβ42; [4]): 90.28±17.38 pmol/mg protein
- hippocampal Aβ levels (Aβ42; [4]): 178.60±18.24 pmol/mg protein
- cortex Aβ levels (Aβ42; [5]): 4.17±0.68 pmol/mg protein
- hippocampal Aβ levels (Aβ42; [5]): 6.35±0.54 pmol/mg protein
- cortical Aβ42 (Aβ42; [6]): about 104%
- hippocampal Aβ42 (Aβ42; [6]): about 94 % that of vehicle-treated APP/PS1 mice
- cortical Aβ42 (Aβ42; mice tested for fear conditioning over 21 days): about 103%
- Aβ levels in APP/PS1 mice (words) (Aβ42): no difference in Aβ42 levels; also recorded: did not change Aβ levels
- Aβ levels in APP/PS1 mice (words) (Aβ42; listed as Uch-L1 fusion protein): did not change Aβ levels
- PKA activity (PKA [3]; 20 nM TAT-HA-Uch-L1 1 hr, then 200 nM Aβ plus TAT-HA-Uch-L1 20 min): 89.21±3.21%
- PKA activity in Aβ-treated slices (PKA [3]; fusion protein 20 nM 1 hr pre-incubation, 200 nM Aβ 20 min): blocked the reduction; also recorded: increased levels of kinase activity
- tetanus-induced increase in phospho-CREB in Aβ-treated slices (phospho-CREB; fusion protein 20 nM 1 hr, then 200 nM Aβ plus fusion protein 20 min): significant protection against Aβ42 effects on phospho-CREB; also recorded: reversed; also recorded: re-established the tetanus-induced increase in CREB phosphorylation; also recorded: re-established the tetanus-induced increase in phospho-CREB
- tetanus-induced increase in phospho-CREB (words) (phospho-CREB; fusion protein alone): did not affect the increase; also recorded: had no effect
- phospho-CREB immunofluorescence without theta-burst (phospho-CREB; no tetanus): did not modify immunofluorescence; also recorded: neither Aβ42 alone nor TAT-HA-Uch-L1 alone nor TAT-HA-Uch-L1 paired with Aβ42 induced changes
- mono-ubiquitin levels (monoubiquitin; 20 nM fusion protein 1 hour, then 200 nM oligomeric Aβ plus fusion protein 20 min): 90.25±17.25 % of control
- monoubiquitin levels (monoubiquitin; fusion protein 20 nM 1 hr pre-incubation plus Aβ): normal monoubiquitin levels; also recorded: blocks the decrease of monoubiquitin levels
- monoubiquitin levels (monoubiquitin; fusion protein 20 nM 1 hr pre-incubation plus Aβ, listed as TAT-A-Uch-L1 peptide): annulled the decrease
- monoubiquitin levels (monoubiquitin; fusion protein 20 nM 1 hr pre-incubation plus Aβ, listed as TAT-Uch-L1 fusion protein): re-establishes normal mono-ubiquitin levels
- mono-ubiquitin levels (monoubiquitin; fusion protein alone): 121.03±14.69 % of control
- monoubiquitin levels (monoubiquitin; substance alone): slight increase
